Data: IntAct's records for PubMed 12799422

B1: Adapter molecule crk (Homo sapiens), P46108 (parent)
chain: MAGNFDSEERSSWYWGRLSRQEAVALLQGQRHGVFLVRDSSTSPGDYVLSVSENSRVSHYIINSSGPRPPVPPSPAQPPPGVSPSRLRIGDQEFDSLPALLEFYKIHYLDTTTLIEPVSRSRQGSGVILRQEEAEYVRALFDFNGNDEEDLPFKKGDILRIRDKPEEQWWNAEDSEGKRGMIPVPYVEKYRPASASVSALIGGNQEGSHPQPLGGPEPGPYAQPSVNTPLPNLQNGPIYARVIQKRVPNAYDKTALALEVGELVKVTKINVSGQWEGECNGKRGHFPFTHVRLLDQQNPDEDFS
partner: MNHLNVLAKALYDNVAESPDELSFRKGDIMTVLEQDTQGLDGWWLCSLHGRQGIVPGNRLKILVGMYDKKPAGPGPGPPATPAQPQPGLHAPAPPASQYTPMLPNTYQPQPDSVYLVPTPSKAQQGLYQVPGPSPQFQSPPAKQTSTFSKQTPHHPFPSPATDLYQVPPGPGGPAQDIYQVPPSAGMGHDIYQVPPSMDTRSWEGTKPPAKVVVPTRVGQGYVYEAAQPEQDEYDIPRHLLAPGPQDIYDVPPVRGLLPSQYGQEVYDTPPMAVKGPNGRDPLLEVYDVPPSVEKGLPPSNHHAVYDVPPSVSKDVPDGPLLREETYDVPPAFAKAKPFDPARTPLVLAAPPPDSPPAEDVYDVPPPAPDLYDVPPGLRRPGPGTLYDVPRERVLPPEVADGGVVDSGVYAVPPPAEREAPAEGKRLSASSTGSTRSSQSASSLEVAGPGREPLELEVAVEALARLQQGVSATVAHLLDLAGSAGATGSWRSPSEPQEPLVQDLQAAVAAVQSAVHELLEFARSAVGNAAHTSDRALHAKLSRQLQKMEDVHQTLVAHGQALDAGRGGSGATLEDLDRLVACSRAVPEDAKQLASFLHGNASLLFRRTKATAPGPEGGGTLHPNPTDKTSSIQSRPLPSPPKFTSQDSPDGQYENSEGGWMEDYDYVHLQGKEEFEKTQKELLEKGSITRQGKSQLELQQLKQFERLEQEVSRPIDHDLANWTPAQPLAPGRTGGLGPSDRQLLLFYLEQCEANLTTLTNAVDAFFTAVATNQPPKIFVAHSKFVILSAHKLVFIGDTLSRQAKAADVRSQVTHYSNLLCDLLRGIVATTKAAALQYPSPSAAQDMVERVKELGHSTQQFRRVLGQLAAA
B2: Adapter molecule crk (Homo sapiens), P46108 (parent)
chain: B1 chain
partner: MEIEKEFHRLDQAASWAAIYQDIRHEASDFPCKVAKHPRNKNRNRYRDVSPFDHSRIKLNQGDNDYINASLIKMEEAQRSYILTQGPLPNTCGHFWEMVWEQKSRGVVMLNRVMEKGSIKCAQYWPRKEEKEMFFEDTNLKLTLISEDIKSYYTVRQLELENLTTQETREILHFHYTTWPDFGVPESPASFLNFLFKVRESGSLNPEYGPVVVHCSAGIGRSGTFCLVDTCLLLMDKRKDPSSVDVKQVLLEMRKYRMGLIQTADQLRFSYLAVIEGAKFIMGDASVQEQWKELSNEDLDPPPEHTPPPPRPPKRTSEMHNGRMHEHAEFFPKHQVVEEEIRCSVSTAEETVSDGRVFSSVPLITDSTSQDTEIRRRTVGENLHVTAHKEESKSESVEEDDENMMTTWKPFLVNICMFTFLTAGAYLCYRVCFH
B3: Adapter molecule crk (Homo sapiens), P46108 (parent)
chain: B1 chain
B4: Tyrosine-protein phosphatase non-receptor type 1 (Gallus gallus (Chicken)), O13016 (parent)
chain: B2 partner

Variants of: B1
Details: with bcar1_human BCAR1, P56945

**Q.** How did the “effect of a mutation on the interaction” value turn out when Y221F was run?
**A.** increasing interaction

Variants of: B2
Details: with ptn1_chick PTPN1, O13016

**Q.** Which “effect of a mutation on the interaction” value does the source give for Y221F here?
**A.** decreasing interaction

Variants of: B3
Details: with paxi_human PXN

**Q.** Which “effect of a mutation on the interaction” value does the source give for Y221F here?
**A.** increasing interaction

Variants of: B4
Details: with crk_human CRK, P46108

**Q.** How did the “effect of a mutation on the interaction” value turn out when MEIEKEFHRLDQAASWAAIYQDIRHEASDFPCKVAKHPRNKNRNRYRDVSPFDHSRIKLNQGDNDYINASLIKMEEAQRSYILTQGPLPNTCGHFWEMVWEQKSRGVVMLNRVMEKGSIKCAQYWPRKEEKEMFFEDTNLKLTLISEDIKSYYTVRQLELENLTTQETREILHFHYTTWPDFGVPESPASFLNFLFKVRESGSLNPEYGPVVVHSSAGIGRSGTFCLVDTCLLLMDKRKDPSSVDVKQVLLEMRKYRMGLIQTADQLRFSYLAVIEGAKFIMGDASVQEQWKELSNEDLDPPPEHTPPPPRPPKRTSEMHNGRMHEHAEFFPKHQVVEEEIRCSVSTAEETVSDGRVFSSVPLITDSTSQDTEIRRRTVGENLHVTAHKEESKSESVEEDDENMMTTWKPFLVNICMFTFLTAGAYLCYRVCFH [C215S] was run?
**A.** disrupting interaction
